According to article PMC2141736:

Molecular target: Schistosoma japonicum glutathione S-transferase (GST) (Schistosoma japonicum)
Experiment: cross-linking

Schistosoma japonicum glutathione S-transferase (GST) (enzyme)
stoichiometry N: 2
